Laboratory results: article PMC5800811

B1: CD59: DMJ (protein)
parent chain: MGIQGGSVLFGLLLVLAVFCHSGHSLQCYNCPNPTADCKTAVNCSSDFDACLITKAGLQVYNKCWKFEHCNFNDVTTRLRENELTYYCCKKDLCNFNEQLENGGTSLSEKTVLLLVTPFLAAAWSLHP
B2: CD59: GANAB-KO (protein)
parent chain: B1 parent chain
B3: CD59: KIF (protein)
parent chain: B1 parent chain
B4: CD59: DNJ (protein)
parent chain: B1 parent chain
B5: CD59: sgALG8 in MOGS-KO (protein)
parent chain: B1 parent chain
B6: CD59: sgALG6 in MOGS-KO (protein)
parent chain: B1 parent chain

Experiments:
[1] = 10-11 d drug culture, PIPLC, anti-CD59 flow cytometry; conditions: glycan changed form; control: untreated HEK293FF6 cells
[2] = PIPLC treatment, anti-CD59 flow cytometry; conditions: glycan changed form

Protein	other: PIPLC resistance of surface CD59 (GPI-inositol acylation) [1]	other: PIPLC resistance of surface CD59 (GPI-inositol acylation) ([2]; control: MOGS-KO cells)	also measured
B1	no change	–	–
B2	–	–	other: PIPLC resistance of surface CD59 (GPI-inositol acylation) ([2]; control: WT HEK293 cells): increases
B3	no change	–	–
B4	increases	–	–
B5	–	decreases	–
B6	–	decreases	–
